These results are taken from US8980609B2, “Uniformly conjugated serine hydrolases” (Israel Institute for Biological Research, priority 2005, dated 2015).

For data set [1] the following is noted: mice, earlier reports; cited from earlier work.
The next data set concerns anti-AChE antibody. Nature of the data set: Immunogenicity in rhesus macaques: anti-AChE antibody formation by ELISA after repeated monthly administration. Type of data set: in vivo. Conditions: monthly intervals, no adjuvant. The source says:
Anti-AChE antibody levels elicited by PEGylated rHuAChE, were compared to those induced by nonmodified rHuAChE or FBS-AChE, following their administration to rhesus macaques. To this end, non-modified or PEG-modified AChE or the heterologous FBS-AChE (no adjuvant included) were repeatedly administered to monkeys at monthly intervals, and anti-AChE antibody formation was monitored by ELISA (FIG. 8).

On to “horse BChE: serum derived horse butyrylcholinesterase [reference compound]”, for which, in data set [1], the “MRT (mean residual time)” value was “approximately 1,400 minutes”.

B1: fetal bovine AChE: serum derived fetal bovine AChE; heterologous FBS-AChE in the monkey study (protein, UniProt P23795 31-613, looked up)
Acetylcholinesterase: EGPEDPELLVMVRGGRLRGLRLMAPRGPVSAFLGIPFAEPPVGPRRFLPPEPKRPWPGVLNATAFQSVCYQYVDTLYPGFEGTEMWNPNRELSEDCLYLNVWTPYPRPSSPTPVLVWIYGGGFYSGASSLDVYDGRFLTQAEGTVLVSMNYRVGAFGFLALPGSREAPGNVGLLDQRLALQWVQENVAAFGGDPTSVTLFGESAGAASVGMHLLSPPSRGLFHRAVLQSGAPNGPWATVGVGEARRRATLLARLVGCPPGGAGGNDTELVACLRARPAQDLVDHEWRVLPQESVFRFSFVPVVDGDFLSDTPEALINAGDFHGLQVLVGVVKDEGSYFLVYGAPGFSKDNESLISRAQFLAGVRVGVPQASDLAAEAVVLHYTDWLHPEDPARLREALSDVVGDHNVVCPVAQLAGRLAAQGARVYAYIFEHRASTLSWPLWMGVPHGYEIEFIFGLPLEPSLNYTIEERTFAQRLMRYWANFARTGDPNDPRDPKAPQWPPYTAGAQQYVSLNLRPLEVRRGLRAQACAFWNRFLPKLLSATDTLDEAERQWKAEFHRWSSYMVHWKNQFDHYSKQDRCSDL
Regarding B1, the “MRT (mean residual time)” value in data set [1] is recorded as “approximately 1,400 minutes”. Further, the “development of anti-AChE antibody after repeated administrations” value in the data set on anti-AChE antibody is “following the third administration”.

B2: serum derived human BChE: serum derived human butyrylcholinesterase (protein, UniProt P06276 29-602, looked up)
Cholinesterase: EDDIIIATKNGKVRGMNLTVFGGTVTAFLGIPYAQPPLGRLRFKKPQSLTKWSDIWNATKYANSCCQNIDQSFPGFHGSEMWNPNTDLSEDCLYLNVWIPAPKPKNATVLIWIYGGGFQTGTSSLHVYDGKFLARVERVIVVSMNYRVGALGFLALPGNPEAPGNMGLFDQQLALQWVQKNIAAFGGNPKSVTLFGESAGAASVSLHLLSPGSHSLFTRAILQSGSFNAPWAVTSLYEARNRTLNLAKLTGCSRENETEIIKCLRNKDPQEILLNEAFVVPYGTPLSVNFGPTVDGDFLTDMPDILLELGQFKKTQILVGVNKDEGTAFLVYGAPGFSKDNNSIITRKEFQEGLKIFFPGVSEFGKESILFHYTDWVDDQRPENYREALGDVVGDYNFICPALEFTKKFSEWGNNAFFYYFEHRSSKLPWPEWMGVMHGYEIEFVFGLPLERRDNYTKAEEILSRSIVKRWANFAKYGNPNETQNNSTSWPVFKSTEQKYLTLNTESTRIMTKLRAQQCRFWTSFFPKVLEMTGNIDEAEWEWKAGFHRWNNYMMDWKNQFNDYTSKKESCVGL
On to B2, for which, in data set [1], the “MRT (mean residual time)” value is “approximately 1,400 minutes”.
